What all share (type): cell-based, mouse
Series [1] relates to MEF5/N9 cells. Kind of series: Transient cotransfection of ER(T2) fusion expression vectors with β-galactosidase reporter; β-galactosidase activity in lysates. The note with it: no 4-OH-tamoxifen; transient transfection 50 or 100 ng vector; relative to Cre-ER(T2) without 4-OH-tamoxifen.
The test system of series [2] is MEF5/N9 cells. Described as above. The note with it: 10^−8 M 4-OH-tamoxifen, 48 h. The procedure: The transformed mouse embryonic fibroblast cell line MEF5/N9 (Schwenk et al., Nucleic Acids Research, 26(6) 1427-1432 (1998)) was obtained from Michel Aguet (University of Zurich, Switzerland). The cells were grown in DMEM medium (Life Technologies) supplemented with 2 mM […] and 10% fetal calf serum at 37° C., 5% CO2 in humid atmosphere and passaged upon trypsinization. One day before transient transfection 4·10^4 cells were plated into a 24-well plate (Falcon). For the transient transfection of MEF5/N9 cells with plasmids, each well received into 500 μl of medium a total amount of 150 ng or 200 ng supercoiled plasmid DNA complexed before with the FuGene6 transfection reagent (Roche Diagnostics GmbH, Mannheim, Germany) according to the manufacturer's protocol. Each 150 ng or 200 ng DNA preparation (FIG. 2 sample 1 to 11) contained 100 ng of the β-Galactosidase expression vector pCMV-β-gal-pA (pCMVβ, Clontech, FIG. 1G, SEQ ID NO: 56), and 100 ng of the fusion ER(T2) expression vectors to be tested (FIG. 2 sample 3-7, 10-11) and the control plasmids (FIG. 2 sample 1-3), except for the samples with the plasmids pCAG-Casp9full-ER(T2)-bpA (FIG. 2 sample 8) and pCAG-Casp9trunc-ER(T2)-bpA (FIG. 2 sample 9), respectively, that received 50 ng of the test vector. For each sample to be tested four individual wells were transfected. Five hours after the addition of the DNA preparations each well received additional 500 μl of growth medium. The following day, the medium of two wells of each sample was replaced by fresh medium. The other two wells received medium containing 10^−8 M 4-hydroxy-tamoxifen (Sigma). 48 hours after induction with 4-OH-tamoxifen, the cells of each well were lysed with 200 μl lysate reagent supplemented with protease inhibitors (Roche Diagnostics GmbH). The lysates were centrifuged and 50 μl were used to determine the β-galactosidase activities using the β-galactosidase reporter gene assay (Roche Diagnostics GmbH) according to the manufacturer's protocol in a microplate luminometer (Berthold Detection Systems GmbH). The mean value and standard deviation of the samples was calculated from the β-galactosidase RLU values obtained from the two transfected wells of each sample. The relative β-galactosidase activity was obtained by comparison to the negative control (pCAG-Cre-ER(T2)-bpA) without 4-OH-tamoxifen.
To investigate the cell death effect of the different ER(T2) fusion constructs quantitatively, we performed transient cotransfections of the ER(T2) fusion protein expression vectors together with a fixed amount of a reporter plasmid coding for β-galactosidase in MEF5/N9 fibroblast cells. Transfected cells were treated 12 hours after transfection with 4-OH-tamoxifen at a concentration of 10^−8 M. Following 48 hours of 4-OH-tamoxifen induction, the cells from the various samples were lysed and the activity of β-galactosidase in the lysates was determined by a chemiluminescence assay and expressed in “Relative Light Units” (RLU) (FIG. 2). As positive controls for 4-OH-tamoxifen-inducible cell death, we prepared samples transfected with the constructs pCAG-HAFas-ER(T2) or pCAG-MFas-ER(T2) together with the reporter plasmid and treatment with 4-OH-tamoxifen. As negative control for this assay served samples which received the reporter plasmid together with the expression vector pCAG-Cre-ER(T2) and that were treated with 4-OH-tamoxifen.
To determine the relative activity of the tested ER(T2) fusion constructs inducing apoptosis in the presence of 4-OH-tamoxifen, the RLU values of β-galactosidase activity were divided individually for each sample by the RLU value obtained from the sample which received the plasmid pCAG-Cre-ER(T2) but was not treated with 4-OH-tamoxifen (defined as negative control). The relative activity of the tested Caspase- or bax-ER(T2) fusion proteins was then compared to the negative control for 4-OH-tamoxifen-dependent cell death defined as an activity of 1.

The subject of series [3] is MEF5/N9 cells. Description: MTT cytotoxicity assay of stably transfected MEF5/N9 clones. The note with it: 10^−8 M 4-OH-tamoxifen, 48 h. How it is done:
(§1) To generate stably transfected MEF5/N9 cells, 2·10^6 cells were coelectroporated with 32 μg ER(T2) fusion plasmid DNA linearised with ScaI and 8 μg pPgk-hygro-pA plasmid DNA linearised with XhoI and plated into two 96-well plates. The cells were grown in DMEM medium (Invitrogen) supplemented with 2 mM Glutamine and 10% fetal calf serum at 37° C., 5% CO2 in humid atmosphere, and passaged upon trypsinization. Two days after transfection the medium was supplemented with 250 U/ml of hygromycin (Calbiochem) for the selection of stable integrants. Upon the growth of resistant colonies these were individually expanded in the presence of hygromycin.
To quantify 4-OH-tamoxifen-inducible cell death, we applied the colorimetric MTT assay (Mossman, J. Immunol. Methods, 65, 55 (1983)) allowing the quantification of cell survival. Cells (4·10^3) were plated on 96-well plates. The assay was carried out in three replicas for each sample treated with and without 4-OH-tamoxifen. After 12 h, medium was replaced either with fresh medium or with medium supplemented with 10^−8 M 4-OH-tamoxifen. Following 48 h of 4-OH-tamoxifen treatment, sterile filtered MTT reagent in PBS (Sigma) was added at the concentration of 0.5 mg/ml. Incubation occurred for 4 hours at 37° C. With ongoing reaction time, dark violet MTT formazan crystals appeared on the bottom of the wells containing living cells. The crystals were dissolved in 150 μl 0.04 N HCl/isopropanol to give a homogeneous blue solution suitable for absorbance measurement at a wavelength of 570 nm on the Synergy™ HT Multi-Detection Microplate Reader (BioTek).
On the technique in general: Tetrazolium assays rely on reduction of a dye to a coloured formazan, in cell work by metabolically active cells.

The test system of series [4] is MEF5/N9 cells. Description: Visible phenotypic changes / viability of stably transfected MEF5/N9 clones on 4-OH-tamoxifen treatment. The following applies: 10^−8 M 4-OH-tamoxifen, 24 h. The procedure:
as §1
To examine 4-OH-tamoxifen-dependent cell death, 1·10^5 MEF5/N9 cells expressing ER(T2) fusion proteins were plated into each well of a six-well plate. The following day, for each sample the medium in two of four individual wells were replaced with medium supplemented with 10^−8 M 4-hydroxy-tamoxifen. 24 hours after induction with 4-OH-tamoxifen, cells were photographed through a Leica DMI6000B fluorescence microscope with phase contrast either at 10-fold or 20-fold magnification.
Since the responsiveness of the clones, transfected with the same construct, to 4-OH-tamoxifen differed only slightly from each other, only the results obtained from one clone for each construct are shown in the figure.

From US8530168B2, “Fusion protein comprising a Caspase domain and a nuclear hormone receptor binding domain and methods and uses thereof” (Helmholtz Zentrum Munich Deutsches Forschungszentrum fuer …, priority 2007, dated 2013) come the findings set out here.

Entries after “also recorded” stand apart in the source; their conditions may differ.

With “Bax-ER(T2): N-terminal fusion of full length murine Bax to ER(T2) ligand binding domain, SEQ ID NO: 48”, the “basal toxicity: relative β-galactosidase activity compared to the negative control in absence of 4-OH-tamoxifen” value in series [1] is given as 100%. Moreover, in series [2], the “4-OH-tamoxifen-dependent activity / toxicity in transient transfection (in words)” value was “neither the N-terminal nor the C-terminal fusion of Bax to ER(T2) displayed any activity”.
“ER(T2)-Bax: spaceless C-terminal fusion of murine Bax to ER(T2), SEQ ID NO: 55; used as negative control in stable clones”: the “basal toxicity: relative β-galactosidase activity compared to the negative control in absence of 4-OH-tamoxifen” value in series [1] is listed as 84%. In addition, the “cell viability in the presence of 4-OH-tamoxifen (MTT)” value in series [3] is “not affected by treatment with 4-OH-tamoxifen”. For the same molecule, the “4-OH-tamoxifen-dependent cell death, phenotype of stable clones” value in series [4] is reported as “did not respond to 4-OH-tamoxifen”; in series [4] (listed as ERBax) it was “not affected by the treatment with 4-OH-tamoxifen”. Moreover, the “4-OH-tamoxifen-dependent activity / toxicity in transient transfection (in words)” value in series [2] is “no tamoxifen-dependent activity; also recorded: neither the N-terminal nor the C-terminal fusion of Bax to ER(T2) displayed any activity”.

B1: Casp9trunc-ER(T2): truncated murine Caspase-9 without CARD domain fused to ER(T2) ligand binding domain, SEQ ID NO: 32 (protein)
chain: MGRQAAKQDPEAVKPLDHLVPVVLGPMGLTAKEQRVVKLDPSQPAVGNLTPVVLGPEELWPARLKPEVLRPETPRPVDIGSGGAHDVCVPGKIRGHADMAYTLDSDPCGHCLIINNVNFCPSSGLGTRTGSNLDRDKLEHRFRWLRFMVEVKNDLTAKKMVTALMEMAHRNHRALDCFVVVILSHGCQASHLQFPGAVYGTDGCSVSIEKIVNIFNGSGCPSLGGKPKLFFIQACGGEQKDHGFEVACTSSQGRTLDSDSEPDAVPYQEGPRPLDQLDAVSSLPTPSDILVSYSTFPGFVSWRDKKSGSWYIETLDGILEQWARSEDLQSLLLRVANAVSAKGTYKQIPGCFNFLRKKLFFKTSVEPSAGDMRAANLWPSPLMIKRSKKNSLALSLTADQMVSALLDAEPPILYSEYDPTRPFSEASMMGLLTNLADRELVHMINWAKRVPGFVDLTLHDQVHLLECAWLEILMIGLVWRSMEHPVKLLFAPNLLLDRNQGKCVEGMVEIFDMLLATSSRFRMMNLQGEEFVCLKSIILLNSGVYTFLSSTLKSLEEKDHIHRVLDKITDTLIHLMAKAGLTLQQQHQRLAQLLLILSHIRHMSNKGMEHLYSMKCKNVVPLYDLLLEAADAHRLHAPTSRGGASVEETDQSHLATAGSTSSHSLQKYYITGEAEGFPATA
modifications: fusion protein Casp9trunc-ER(T2)
Turning to B1, in series [1], the “basal toxicity: relative β-galactosidase activity compared to the negative control in absence of 4-OH-tamoxifen” value worked out at 70%. Further, the figures for the “4-OH-tamoxifen-dependent cell death, phenotype of stable clones” value in series [4] and in series [4] (listed as Casp9truncER) were “weaker susceptibility to 4-OH-tamoxifen” and “substantial cell death”, respectively. In series [2] (relative to Cre-ER(T2) without 4-OH-tamoxifen), the “relative β-galactosidase activity in presence of 4-OH-tamoxifen compared to the negative control” value is 22%.

B2: Casp3-ED4ER(T2): full length murine Caspase-3 fused directly to N-terminal shortened ER(T2) domain, SEQ ID NO: 41 (protein)
chain: MENNKTSVDSKSINNFEVKTIHGSKSVDSGIYLDSSYKMDYPEMGICIIINNKNFHKSTGMSSRSGTDVDAANLRETFMGLKYQVRNKNDLTREDILELMDSVSKEDHSKRSSFVCVILSHGDEGVIYGTNGPVELKKLTSFFRGDYCRSLTGKPKLFIIQACRGTELDCGIETDSGTDEEMACQKIPVEADFLYAYSTAPGYYSWRNSKDGSWFIQSLCSMLKLYAHKLEFMHILTRVNRKVATEFESFSLDSTFHAKKQIPCIVSMLTKELYFYHLESLALSLTADQMVSALLDAEPPILYSEYDPTRPFSEASMMGLLTNLADRELVHMINWAKRVPGFVDLTLHDQVHLLECAWLEILMIGLVWRSMEHPVKLLFAPNLLLDRNQGKCVEGMVEIFDMLLATSSRFRMMNLQGEEFVCLKSIILLNSGVYTFLSSTLKSLEEKDHIHRVLDKITDTLIHLMAKAGLTLQQQHQRLAQLLLILSHIRHMSNKGMEHLYSMKCKNVVPLYDLLLEAADAHRLHAPTSRGGASVEETDQSHLATAGSTSSHSLQKYYITGEAEGFPATA
modifications: fusion gene Casp3-ED4ER(T2)
For B2, the “basal toxicity: relative β-galactosidase activity compared to the negative control in absence of 4-OH-tamoxifen” value in series [1] is 52%. Moreover, the “4-OH-tamoxifen-dependent activity / toxicity in transient transfection (in words)” value in series [2] is given as “could not be regulated in presence of 4-OH-tamoxifen”.
